Each block holds one binder with its values, some of them ahead of it.
Molecular target: T1, mouse LAG-3 ECD (mouse, UniProt Q61790 24-442)
T1 sequence: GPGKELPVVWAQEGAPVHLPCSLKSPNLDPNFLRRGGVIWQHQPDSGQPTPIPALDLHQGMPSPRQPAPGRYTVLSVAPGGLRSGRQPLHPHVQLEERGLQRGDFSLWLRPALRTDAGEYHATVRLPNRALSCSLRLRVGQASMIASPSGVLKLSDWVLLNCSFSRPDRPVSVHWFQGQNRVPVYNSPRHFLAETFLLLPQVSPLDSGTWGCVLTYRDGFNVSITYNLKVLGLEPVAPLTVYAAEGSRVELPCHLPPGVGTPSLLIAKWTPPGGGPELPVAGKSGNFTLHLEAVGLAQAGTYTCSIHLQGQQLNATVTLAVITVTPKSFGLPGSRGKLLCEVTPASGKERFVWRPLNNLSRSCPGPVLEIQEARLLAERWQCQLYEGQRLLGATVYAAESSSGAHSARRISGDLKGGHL
Test: SPR, Fab over captured LAG-3 ECD
Description: Antigens were purified using standard procedures and captured onto an G-a-hu-IgG Fc SensEye® (Ssens BV, The Netherlands) for 15 minutes using a Continuous Flow Microspotter (CFM, Wasatch Microfluidics, Salt Lake City, US). After spotting, the SensEye® was positioned in the IBIS MX96 biosensor and remaining capture sites blocked. […] Fab association was performed for 15 minutes and antigen dissociation was performed for 15 minutes. The recorded binding responses were fitted to a simple Langmuir 1:1 binding model with Scrubber 2 software for calculation of the on-rate (kon or ka), off-rate (koff or kd) and affinity (KL) constants.

Kd: 33 nM
koff: 0.0023 s⁻¹
kon: 72000 M⁻¹ s⁻¹
B1: Fab fragment of antibody 15011 (Fab, V domains shown, not shown: a dimerising Fc or GST)
VH: EVQLLESGGGLVQPGGSLRLSCAASGFDFRSYAMMWVRQAPGKGLEWVGGINGEVGGSNTYYAPAVKGRATISRDNSKNTLYLQMNSLRAEDTAVYYCVKGAGACGICNDDIDAWGQGTLVTVSS
VL: SYELTQDPAVSVALGQTVRITCSGAGSYAGSYYYGWHQQKPGQAPVTVIYDNDKRPSNIPDRFSGSSSGNTASLTITGAQAEDEADYYCGSTNDNDDGGLFGSGTKVTVLG
notes: monomeric Fab made by GingisKHAN digestion of the IgG1

binding result: no binding (tested: 1000 nM)
B2: Fab fragment of antibody 15532 (Fab, V domains shown, not shown: a dimerising Fc or GST)
VH: QVQLQQWGAGLLRPSETLSLTCAVYGESFSGYYWNWIRQPPGKGLEWIGEINHSGSTNYNPSLKSRVTISVDTSKTQFSLKLSSVTAADTAVYYCARGWDLLDWNDYWNEYWGQGTLVTVSS
VL: EIVLTQSPATLSLSPGERATLSCRASQSVSSYLAWYQQKPGQAPRLLIYDASNRATGIPARFSGSGSGTDFTLTISSLEPEDFAVYYCQQRSNWPLTFGGGTKVEIKR
notes: as for B1

binding result: no binding (tested: 1000 nM)
B3: Fab fragment of antibody 15431 (Fab, V domains shown, not shown: a dimerising Fc or GST)
VH: QVQLQQSGPGLVKPSQTLSLTCAISGDSVSSNSAAWNWIRQSPSRGLEWLGRTYYRSKWYNDYAVSVKSRITINPDTSKNQFSLQLNSVTPEDTAVYYCARDDDWNDFDYWGQGTLVTVSS
VL: B2 VL
notes: as for B1

binding result: no binding (tested: 1000 nM)
B4: Fab fragment of antibody 15572 (Fab, V domains shown, not shown: a dimerising Fc or GST)
VH: QLQLQESGPGLVKPSETLSLTCTVSGDSISSSSYYWGWIRQPPGKGLEWIGSIFYSGNTYYNPSLKSRVTISVDTSKNQFSLKLSSVTAADTAVYYCAREDDFLTDYYGAFDIWGQGTMVTVSS
VL: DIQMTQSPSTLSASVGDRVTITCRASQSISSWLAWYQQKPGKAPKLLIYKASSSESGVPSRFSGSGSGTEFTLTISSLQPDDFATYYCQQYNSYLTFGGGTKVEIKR
notes: as for B1
